Laboratory results: the supplement of paper PMC12042874
± gives the uncertainty stated by the source.

Assay: amyloid nucleation score (Sup35N fusion, yeast selection) (log enrichment); library NNK3; higher = more nucleation; inactive = no reads after selection
Outline: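 The nucleation score is a DiMSum log enrichment of output over input reads, centred on the mode score of non-aggregating sequences. Sequences under 100 input reads were excluded, and reads came from Illumina sequencing of plasmid inserts. Psi-negative yeast expressing Sup35N fused to peptides of 20 random codons were induced with 100 μM copper sulfate for 24 hours and grown 7 days at 30°C on medium lacking adenine and uracil. Random libraries had three technical output replicates.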
In the case of IHIFTLKYKVRARKLATTIS, the amyloid nucleation score is reported as “inactive”.
With ATGDNNLGIMAMALYT the amyloid nucleation score was “inactive”.
For CLLEHFK, the amyloid nucleation score was “inactive”.
For KRLLVKVLLDVIGAYRDSSC, the amyloid nucleation score was “inactive”.
With LVGSSSFTAWPTIVSNI the amyloid nucleation score was “inactive”.
With RLGTMVVDLVERARIEGDVF the amyloid nucleation score was “inactive”.
VNLHLTVEQLSMLYRTNANV showed an amyloid nucleation score of 1.07 ± 0.14.
With SCAAPMIILTDKSCGRRGLG the amyloid nucleation score was “inactive”.
With GLGTAD the amyloid nucleation score was “inactive”.
For LYFNWWTRGTAMLYGI, the amyloid nucleation score was “inactive”.
In the case of ENERM, the amyloid nucleation score is reported as “inactive”.
With IQWFRQCSFRCSNHYSSAFK the amyloid nucleation score was 1.44 ± 0.14.
With SSRRSNYASSDPIWIVSLFG the amyloid nucleation score was “inactive”.
With GRCRITKSLGGSSQTNGYWV the amyloid nucleation score was “inactive”.
MNFGYNNSFAIYSVFYSYRC gave an amyloid nucleation score of 2.69 ± 0.055.
In the case of GSLYFSCINPM, the amyloid nucleation score is reported as “inactive”.
With GGFRISHSIC the amyloid nucleation score was “inactive”.
For IALSGRYRDSAACRDSCHVA, the amyloid nucleation score was “inactive”.
In the case of RIMWSRRVENVL, the amyloid nucleation score is reported as “inactive”.
For YWSGRIKGTR, the amyloid nucleation score was “inactive”.
With VYSMEPECIW the amyloid nucleation score was “inactive”.
For FCLVLGVWNLVPPGVKSMMQ, the amyloid nucleation score was 0.889 ± 0.14.
For FIDQVDIVVCWSTWAI, the amyloid nucleation score was “inactive”.
For SCMSYDLRQL, the amyloid nucleation score was “inactive”.
With SQVLWGTSRGLYYTDRNFTN the amyloid nucleation score was “inactive”.
For LSGFSMIFREDNSVVFV, the amyloid nucleation score was “inactive”.
In the case of CCAYFVGLGCVQLTKWFSLL, the amyloid nucleation score is reported as “inactive”.
With GRGNAGPCTSNRWDDFWEKK the amyloid nucleation score was “inactive”.
With EVVKLVR the amyloid nucleation score was “inactive”.
For SLNNCGLLWYPSTTPPESLG, the amyloid nucleation score was “inactive”.
For YGGDSNRIRVRLFKMKTLNL, the amyloid nucleation score was “inactive”.
SKRNPRMRSQLFIGDYFAYP gave an amyloid nucleation score of -1.13 ± 1.9.
With CVTGVSLPGNRISG the amyloid nucleation score was “inactive”.
For TYFHIRCVV, the amyloid nucleation score was “inactive”.
In the case of GMFMCMKMVFFLKWYINLYF, the amyloid nucleation score is reported as “inactive”.
In the case of NMALLEYDSMSFICRYRNRP, the amyloid nucleation score is reported as “inactive”.
In the case of YRPYC, the amyloid nucleation score is reported as “inactive”.
With MLEYRVTARDGVLWEMGFGY the amyloid nucleation score was “inactive”.
With LVTSTSMG the amyloid nucleation score was 2.77 ± 0.068.
With SAVVMRSQADSFDYLN the amyloid nucleation score was “inactive”.
For ISKAVSWCASCRSTQV, the amyloid nucleation score was “inactive”.
For PVLSIYWTGPLKFNYIMMGL, the amyloid nucleation score was “inactive”.
For GPSSMINNVDLSCFSF, the amyloid nucleation score was “inactive”.
VYASCTFNIEKVLSVVQTTF showed an amyloid nucleation score of 1.52 ± 0.087.
For HYAVQYTNRYKGFKLHKQHN, the amyloid nucleation score was “inactive”.
Substance CWIAMCGVVFNDLRMS has an amyloid nucleation score of 2.81 ± 0.071.
With RWVKSKFAV the amyloid nucleation score was “inactive”.
Substance TMFIVNTNIWSGVCISDNTW has an amyloid nucleation score of 1.78 ± 0.067.
With YLWRQYYALFCYCFWNLKGP the amyloid nucleation score was “inactive”.
In the case of PFAST, the amyloid nucleation score is reported as “inactive”.
With HSSSLLRLQPVVHYLLLNVD the amyloid nucleation score was “inactive”.
Work on FVPNVRLTDLWRANKGIVSH yielded an amyloid nucleation score of 0.404 ± 0.38.
With LDRFENINRL the amyloid nucleation score was “inactive”.
IWKAWDNSSMGCPS gave an amyloid nucleation score of -0.032 ± 0.33.
Substance NCYRRTLHSSWREWIWPIGC has an amyloid nucleation score of -0.062 ± 0.82.
In the case of HLKCLGNKACEGRVITHVAD, the amyloid nucleation score is reported as “inactive”.
With LLYFSVLRSEL the amyloid nucleation score was “inactive”.
For GESNVFILSAFNFNALVGFS, the amyloid nucleation score was “inactive”.
Substance GLIVCVVASSYLMSGFGVKG has an amyloid nucleation score of 0.03 ± 0.22.
For YLTGTMSVEFRPHGMPNLSK, the amyloid nucleation score was 1.82 ± 0.08.
With YTGSVRFVEM the amyloid nucleation score was “inactive”.
In the case of GKKLDMYHIRHSRW, the amyloid nucleation score is reported as “inactive”.
For YSWVKEYLSLLSYYCNYRVD, the amyloid nucleation score was “inactive”.
In the case of CSLNLCVKDTHIHEN, the amyloid nucleation score is reported as “inactive”.
With WFDWVMVTYEGLSTVF the amyloid nucleation score was “inactive”.
With FYNVRF the amyloid nucleation score was “inactive”.
Substance TSYDFTMARYCSNDYVFIWH has an amyloid nucleation score of 2.44 ± 0.061.
With DYYSCFISYRLIRYWICGEA the amyloid nucleation score was “inactive”.
For PLWHTWFGYAE, the amyloid nucleation score was 0.494 ± 0.24.
Work on YSSGSFCLFKWSIHR yielded an amyloid nucleation score of 1.65 ± 0.065.
For VCVRYLFLFFSLIFYSGT, the amyloid nucleation score was “inactive”.
In the case of NPPKDGYMLTWIIYDRKAGT, the amyloid nucleation score is reported as “inactive”.
With IVLIKSILDANEEGT the amyloid nucleation score was “inactive”.
With KIIRMF the amyloid nucleation score was “inactive”.
With QFLLGSWYRLLRSGTVNSPS the amyloid nucleation score was “inactive”.
For HMGNKRLCYCSSR, the amyloid nucleation score was -0.326 ± 0.87.
In the case of MHAMCQLWCSS, the amyloid nucleation score is reported as -0.323 ± 1.4.
With MCLSMVKISKNKLSFTGFLI the amyloid nucleation score was “inactive”.
For FDGKMVYFSAEFSFDKFLDR, the amyloid nucleation score was 1.74 ± 0.11.
With LSTFMWNQAVWTPRIFWRCA the amyloid nucleation score was “inactive”.
With YITDYNQVSAHTQNKKTMGY the amyloid nucleation score was “inactive”.
For FSSKDRLGSHSRYYFYCATL, the amyloid nucleation score was “inactive”.
For AGNAFVDR, the amyloid nucleation score was “inactive”.
With SINCTYPVRND the amyloid nucleation score was “inactive”.
With WMDIYW the amyloid nucleation score was 0.403 ± 0.24.
For MLFVEFSMGSHCRET, the amyloid nucleation score was 1.53 ± 0.1.
Substance FFRTGFLVGNSSEYYMQY has an amyloid nucleation score of 0.215 ± 0.46.
CMFCLPMGNSIRGLGNRNSV showed an amyloid nucleation score of 1.87 ± 0.074.
For FQRVPNWVSIILTGYRGNTC, the amyloid nucleation score was “inactive”.
In the case of HRVIWSFSFVRSDFCFPYCA, the amyloid nucleation score is reported as “inactive”.
In the case of GSLCLSGKKIVFLHMNEAMG, the amyloid nucleation score is reported as “inactive”.
LRYGEFSCSNLYFTWLSFIL showed an amyloid nucleation score of 0.749 ± 0.17.
For NHGNSDEKTFPTMEN, the amyloid nucleation score was “inactive”.
TTHNAFMSNNNIR gave an amyloid nucleation score of 0.711 ± 0.13.
With GTNWCGIFLNFLLFVML the amyloid nucleation score was “inactive”.
For CAQARSRFTYQSAHR, the amyloid nucleation score was “inactive”.
For SMQRNSQFLLAQYTDPGGN, the amyloid nucleation score was “inactive”.
Work on GTQLFFYMMCARFKDNL yielded an amyloid nucleation score of 0.195 ± 0.38.
For CRKEYIFYLFHIIMSQARNI, the amyloid nucleation score was “inactive”.
With SNEGE the amyloid nucleation score was “inactive”.
In the case of FLFRC, the amyloid nucleation score is reported as “inactive”.
With WWSYQGRLVGCGYMRTDNAP the amyloid nucleation score was “inactive”.
For TQSWLCRV, the amyloid nucleation score was “inactive”.
With LYRAIHHNKFLESACLRYAL the amyloid nucleation score was “inactive”.
In the case of PTNDAYVVVMD, the amyloid nucleation score is reported as “inactive”.
In the case of CLVKHRPHSEVACGADNVCR, the amyloid nucleation score is reported as “inactive”.
In the case of TTLLFMKH, the amyloid nucleation score is reported as “inactive”.
In the case of GMFRDHAYADCRGLTY, the amyloid nucleation score is reported as “inactive”.
For KTNRFHIDFAIDTPRLSLFL, the amyloid nucleation score was “inactive”.
RAYSYPSDYWW gave an amyloid nucleation score of -0.122 ± 0.43.
With SESYPTRLSGRKILTRALT the amyloid nucleation score was “inactive”.
For AWMVFCPCKMCMCRCYL, the amyloid nucleation score was 1.41 ± 0.073.
For RMDLEIVLNILHSGMS, the amyloid nucleation score was “inactive”.
With YLMIIDRPKSHNLPYLGMLH the amyloid nucleation score was “inactive”.
For SHKFRMITIGPSSMIGALTC, the amyloid nucleation score was “inactive”.
For FLPCRFHNSLTDND, the amyloid nucleation score was “inactive”.
For YLKVADVSLHLSHDLTYLLM, the amyloid nucleation score was “inactive”.
For ERNAGLITAFYFYSPFGTMM, the amyloid nucleation score was “inactive”.
For IAAIGLELYWFFIVSIWGY, the amyloid nucleation score was “inactive”.
In the case of ISRGALYLGMTATMRVQSGF, the amyloid nucleation score is reported as “inactive”.
With EGMEWVVEDNFRKMCYTARF the amyloid nucleation score was “inactive”.
In the case of YHSLYTAPDEGLFYRNRRKF, the amyloid nucleation score is reported as “inactive”.
For EGSHVPIILGYREFCVFILT, the amyloid nucleation score was “inactive”.
With PYSISRLTSYDPFGHVPGTR the amyloid nucleation score was “inactive”.
For ACRGLVDVNNWLSGYGIRIG, the amyloid nucleation score was “inactive”.
For AYIDNRSYVCDALKCLW, the amyloid nucleation score was 2.92 ± 0.055.
For MSMLYSGWAYELTLHYMRPA, the amyloid nucleation score was “inactive”.
GPQYWCVTRNNYYGSFYEVS gave an amyloid nucleation score of 0.407 ± 0.18.
For QRDTSGEYGIVWYYVFNRTG, the amyloid nucleation score was “inactive”.
In the case of GICHSSRCWGTSENGNWLRI, the amyloid nucleation score is reported as “inactive”.
In the case of MLVAGPLGQE, the amyloid nucleation score is reported as “inactive”.
For LAGSSVVKLYGPVLRFFSSL, the amyloid nucleation score was “inactive”.
In the case of ERFYTLVI, the amyloid nucleation score is reported as “inactive”.
For EPTVC, the amyloid nucleation score was “inactive”.
With MKWNPLDQTKL the amyloid nucleation score was “inactive”.
Work on FYLYLDHVKVNWSRS yielded an amyloid nucleation score of 0.989 ± 0.15.
For SRYLGKGFVSGTCDVGCGLN, the amyloid nucleation score was “inactive”.
With SSRVNKGEVARLVVSIPIIH the amyloid nucleation score was “inactive”.
In the case of SLFINT, the amyloid nucleation score is reported as “inactive”.
With GILNFAL the amyloid nucleation score was “inactive”.
With ARLEMVFLPSPIFVNRPGNA the amyloid nucleation score was “inactive”.
With LNVYNWKN the amyloid nucleation score was “inactive”.
With YFPSYYVADFSSHLLMGQVY the amyloid nucleation score was “inactive”.
For RAYSLLVRQIVRCNESG, the amyloid nucleation score was “inactive”.
For NKDFGFSYIRTFPRILKVW, the amyloid nucleation score was “inactive”.
For ALVCYK, the amyloid nucleation score was “inactive”.
In the case of FYVLNMNDLTSGLDMHVKS, the amyloid nucleation score is reported as “inactive”.
For SLFKEWAWA, the amyloid nucleation score was “inactive”.
In the case of CVTRDDLCYW, the amyloid nucleation score is reported as “inactive”.
In the case of RYCNAWLAGKSIFAPFVGTM, the amyloid nucleation score is reported as “inactive”.
With TLNRLDSHGSFFRMNVREGV the amyloid nucleation score was “inactive”.
In the case of GTTRATPSGPLCMNGKENVV, the amyloid nucleation score is reported as “inactive”.
In the case of YGFRMRRLVARLESRQWFWG, the amyloid nucleation score is reported as “inactive”.
In the case of DVTTDDSSFRYMLKLLRGIT, the amyloid nucleation score is reported as “inactive”.
For VDVDPVSSD, the amyloid nucleation score was “inactive”.
For RQLMIDAQSVYKCCGQPW, the amyloid nucleation score was “inactive”.
For IGRISMAIMWIGVGVA, the amyloid nucleation score was “inactive”.
With LFMKSVEMWNRGYLSITCMC the amyloid nucleation score was “inactive”.
With YSIDLFIRESDFDVHKKHIS the amyloid nucleation score was “inactive”.
Substance IDSNGYVLLVRDGREKVVRC has an amyloid nucleation score of 0.204 ± 0.29.
For AHSRWVSQCDITR, the amyloid nucleation score was “inactive”.
